Laboratory results from patent US20250236657A1 (TOSOH, published 2025).

Columns and labels:
[1] = biological target: T1, AAV2 (wild type), serotype 2 AAV with capsid region VP1 of SEQ ID NO: 99 (adeno-associated virus serotype 2 (AAV2), UniProt P03135 1-735); assay: affinity HPLC, AVR11a immobilization gel, linear pH gradient 6.0 to 2.0, AAV2 peak top
T1 construct: Recombinant AAV2 vector particles (EGFP genome) in filtered cell lysate; the capsid is assembled from VP1, VP2 and VP3

AAV2 S267T = biological target: T2, AAV2 S267T (adeno-associated virus serotype 2 (AAV2), UniProt P03135 1-735); assay: as above
T2 construct: Recombinant AAV2 vector particles in filtered cell lysate

AAV2 S267A = biological target: T3, AAV2 S267A (adeno-associated virus serotype 2 (AAV2), UniProt P03135 1-735); assay: as above
T3 construct: Recombinant AAV2 vector particles in filtered cell lysate

AAV2 R471A = biological target: T4, AAV2 R471A (adeno-associated virus serotype 2 (AAV2), UniProt P03135 1-735); assay: as above
T4 construct: Recombinant AAV2 vector particles in filtered cell lysate

AAV2 S264A = biological target: T5, AAV2 S264A (adeno-associated virus serotype 2 (AAV2), UniProt P03135 1-735); assay: as above
T5 construct: Recombinant AAV2 vector particles in filtered cell lysate

AAV2 E499A = biological target: T6, AAV2 E499A (adeno-associated virus serotype 2 (AAV2), UniProt P03135 1-735); assay: as above
T6 construct: Recombinant AAV2 vector particles in filtered cell lysate

AAV2 Q263A = biological target: T7, AAV2 Q263A (adeno-associated virus serotype 2 (AAV2), UniProt P03135 1-735); assay: as above
T7 construct: Recombinant AAV2 vector particles in filtered cell lysate

AAV2 T503S = biological target: T8, AAV2 T503S (adeno-associated virus serotype 2 (AAV2), UniProt P03135 1-735); assay: as above
T8 construct: Recombinant AAV2 vector particles in filtered cell lysate

AAV2 S384A = biological target: T9, AAV2 S384A (adeno-associated virus serotype 2 (AAV2), UniProt P03135 1-735); assay: as above
T9 construct: Recombinant AAV2 vector particles in filtered cell lysate

AAV2 D529E = biological target: T10, AAV2 D529E (adeno-associated virus serotype 2 (AAV2), UniProt P03135 1-735); assay: as above
T10 construct: Recombinant AAV2 vector particles in filtered cell lysate

AAV2 Q385A = biological target: T11, AAV2 Q385A (adeno-associated virus serotype 2 (AAV2), UniProt P03135 1-735); assay: as above
T11 construct: Recombinant AAV2 vector particles in filtered cell lysate

AAV2 N382A = biological target: T12, AAV2 N382A (adeno-associated virus serotype 2 (AAV2), UniProt P03135 1-735); assay: as above
T12 construct: Recombinant AAV2 vector particles in filtered cell lysate

AAV2 D528A = biological target: T13, AAV2 D528A (adeno-associated virus serotype 2 (AAV2), UniProt P03135 1-735); assay: as above
T13 construct: Recombinant AAV2 vector particles in filtered cell lysate

AAV2 H271A = biological target: T14, AAV2 H271A (adeno-associated virus serotype 2 (AAV2), UniProt P03135 1-735); assay: affinity HPLC on AVR11a column, pH gradient 6.0 to 2.0; no elution peak, not adsorbed and passed through
T14 construct: Recombinant AAV2 vector particles in filtered cell lysate

AAV2 H271Q = biological target: T15, AAV2 H271Q (adeno-associated virus serotype 2 (AAV2), UniProt P03135 1-735); assay: as above
T15 construct: Recombinant AAV2 vector particles in filtered cell lysate

AAV2 H271T = biological target: T16, AAV2 H271T (adeno-associated virus serotype 2 (AAV2), UniProt P03135 1-735); assay: as above
T16 construct: Recombinant AAV2 vector particles in filtered cell lysate

AAV2 G383A = biological target: T17, AAV2 G383A (adeno-associated virus serotype 2 (AAV2), UniProt P03135 1-735); assay: as above
T17 construct: Recombinant AAV2 vector particles in filtered cell lysate

AAV2 H271F = biological target: T18, AAV2 H271F (adeno-associated virus serotype 2 (AAV2), UniProt P03135 1-735); assay: as above
T18 construct: Recombinant AAV2 vector particles in filtered cell lysate

AAV2 D529A = biological target: T19, AAV2 D529A (adeno-associated virus serotype 2 (AAV2), UniProt P03135 1-735); assay: as above
T19 construct: Recombinant AAV2 vector particles in filtered cell lysate

B1: AAV-binding protein AVR11a with cysteine tag (SEQ ID NO: 100), immobilised as AVR11a immobilization gel (receptor)
chain: MGSAGESDQITLPKNEVQLNVYVLQEPPKGETSTYDWQLITHPRDYSGEMEGEHSQILKLSNLTPGLYEFKAVVEGQNAHSEGYVNVTVEPEPRKNRPPIAIVSPQFQEISLPTTSTVIDGSQSTDDDKIVQYHWEELKGPLREEKISEDTAILKLSKLVPGNYTFRLTVVDSDGATDSTTANLTVNKAVDHHHHHHCRNDTCG
modifications: immobilised on a TOYOPEARL carrier with iodoacetamide groups; cysteine tag sequence serving as immobilization tag at positions 220-226
notes: KIAA0319L PKD1 and PKD2 with 11 substitutions (AVR10s plus Ala330Val); also called AVR11a column
AVR11a column elution time [1]: 59.8 min
AVR11a column elution time (AAV2 S267T): 59.2 min
AVR11a column elution time (AAV2 S267A): 59.4 min
AVR11a column elution time (AAV2 R471A): 60.3 min
AVR11a column elution time (AAV2 S264A): 59.6 min
AVR11a column elution time (AAV2 E499A): 59.3 min
AVR11a column elution time (AAV2 Q263A): 60.2 min
AVR11a column elution time (AAV2 T503S): 55.2 min
AVR11a column elution time (AAV2 S384A): 58.6 min
AVR11a column elution time (AAV2 D529E): 54.5 min
AVR11a column elution time (AAV2 Q385A): 57.7 min
AVR11a column elution time (AAV2 N382A): 53.5 min
AVR11a column elution time (AAV2 D528A): 55.5 min
binding result (AAV2 H271A): no binding
binding result (AAV2 H271Q): no binding
binding result (AAV2 H271T): no binding
binding result (AAV2 G383A): no binding
binding result (AAV2 H271F): no binding
binding result (AAV2 D529A): no binding
